Data on three substances can be found in publication PMC12323374.

Series [1] has as its system Nsp3 Ubl1 (in N complex);N protein (in Ubl1 complex) (SARS-CoV-2;SARS-CoV-2). The series is described as follows: EMSA.
Series [2] relates to Nsp3 Ubl1 (SARS-CoV-2 (MN908947.3?)). The series is described as follows: EMSA.
The next series concerns Nsp3 ADRP (SARS-CoV-2). The experiment in a line: EMSA.
Series [3] concerns Nsp3 Y domain (SARS-CoV-2). The series is described as follows: EMSA.
A further series has as its system Nsp3 HSUD (SARS-CoV-2). The series is described as follows: EMSA.
For series [4], the system named is Nucleocapsid (N) protein (SARS-CoV-2). The series is described as follows: EMSA.
The subject of a further series is Nsp3 NAB (SARS-CoV-2). The experiment in a line: EMSA.
Series [5] has as its target SARS-CoV-2 nucleocapsid (N) protein, full length (419 amino acids) (SARS-CoV-2) (UniProt P0DTC9). The experiment in a line: SEC-RALS.
Series [6] has as its target SARS-CoV-2 Nsp3 ubiquitin-like 1 (Ubl1) domain, residues 1-111 (SARS-CoV-2). The experiment in a line: crystal structure.

For the substance 5' UTR (1-245), the dissociation constant (Kd) in series [1] turned out to be 0.007 µM; in series [2] it was 31 µM; in the series on Nsp3 ADRP (SARS-CoV-2), 198 µM; in [3], 0.7 µM; with Nsp3 HSUD (SARS-CoV-2), 41 µM; in series [4] it was 0.79 µM. The substance further showed a Kd in the series with Nsp3 NAB (SARS-CoV-2) of 204 µM.
“His6-Nsp3 Ubl1 domain (residues 1-111) (domain or fragment)” yielded a stoichiometry N (Ubl1 per N (4:4)) in series [5] of 1.
Consider “SARS-CoV-2 Nsp3 ubiquitin-like 1 (Ubl1) domain, residues 1-111 (domain or fragment)”, for which the stoichiometry N in [6] amounted to 2.
